In experiment [1] the target is putative receptor(s) on brush border membrane vesicles (BBMV) prepared from midguts of third instars of the western corn rootworm (Diabrotica virgifera virgifera LeConte) (Diabrotica virgifera virgifera). The experiment is described as follows: saturation radioligand binding to western corn rootworm BBMV (0.1 mg/ml), GraphPad Prism fit.
For experiment [2] the target is unchanged.
For experiment [3] the target is unchanged. The experiment in a line: homologous competition, 5 nM 125I-Cry3Ba1 on western corn rootworm BBMV (0.1 mg/ml), unlabelled Cry3Ba1 (0-2,500 nM) as competitor.

The record followed here is US20130180016A1.

B1: Cry35Ab1 chymotrypsin core (chymotrypsin-truncated Cry35Ab1 core protein) (protein)
chain: MLDTNKVYEISNHANGLYAATYLSLDDSGVSLMNKNDDDIDDYNLKWFLFPIDDDQYIITSYAANNCKVWNVNNDKINVSTYSSTNSIQKWQIKANGSSYVIQSDNGKVLTAGTGQALGLIRLTDESSNNPNQQWNLTSVQTIQLPQKPIIDTKLKDYPKYSPTGNIDNGTSPQLMGWTLVPCIMVNDPNIDKNTQIKTTPYYILKKYQYWQRAVGSNVALRPHEKKSYTYEWGTEIDQKTTIINTLGFQINIDSGMKFDIPEVGGGTDEIKTQLNEELKIEYSHETKIMEKYQEQSEIDNPTDQSMNSIGFLTITSLELYRYNGSEIRIMQIQTSDNDTYNVTSYPNHQQALL
modifications: 125I-iodinated (Pierce Iodination Beads, Na125I) where used as the labelled ligand; unlabelled where used as competitor
For orientation: Kd means the constant that tells how readily two partners part at equilibrium. In experiment [1], B1 showed a Kd of 11.7 nM and a binding site concentration Bmax of 0.78 pmol/mg BBMV.

B2: mixture of Cry35Ab1+Cry34Ab1 (binary toxin) (protein)
chain 1: MLDTNKVYEISNHANGLYAATYLSLDDSGVSLMNKNDDDIDDYNLKWFLFPIDDDQYIITSYAANNCKVWNVNNDKINVSTYSSTNSIQKWQIKANGSSYVIQSDNGKVLTAGTGQALGLIRLTDESSNNPNQQWNLTSVQTIQLPQKPIIDTKLKDYPKYSPTGNIDNGTSPQLMGWTLVPCIMVNDPNIDKNTQIKTTPYYILKKYQYWQRAVGSNVALRPHEKKSYTYEWGTEIDQKTTIINTLGFQINIDSGMKFDIPEVGGGTDEIKTQLNEELKIEYSHETKIMEKYQEQSEIDNPTDQSMNSIGFLTITSLELYRYNGSEIRIMQIQTSDNDTYNVTSYPNHQQALL
chain 2: MSAREVHIDVNNKTGHTLQLEDKTKLDGGRWRTSPTNVANDQIKTFVAESNGFMTGTEGTIYYSINGEAEISLYFDNPFAGSNKYDGHSNKSQYEIITQGGSGNQSHVTYTIQTTSSRYGHKS
modifications: 125I-iodinated where the mixture holds the labelled ligand
For B2, in experiment [2], the specific binding as percent of the total binding came to 90%.

B3: Cry3Ba1 trypsin core (protein)
chain: SQDRIRELFSQAESHFRNSMPSFAVSKFEVLFLPTYAQAANTHLLLLKDAQVFGEEWGYSSEDIAEFYQRQLKLTQQYTDHCVNWYNVGLNSLRGSTYDAWVKFNRFRREMTLTVLDLIVLFPFYDVRLYSKGVKTELTRDIFTDPIFTLNALQEYGPTFSSIENSIRKPHLFDYLRGIEFHTRLRPGYSGKDSFNYWSGNYVETRPSIGSNDTITSPFYGDKSIEPIQKLSFDGQKVYRTIANTDIAAFPDGKIYFGVTKVDFSQYDDQKNETSTQTYDSKRYNGYLGAQDSIDQLPPETTDEPLEKAYSHQLNYAECFLMQDRRGTIPFFTWTHRSVDFFNTIDAEKITQLPVVKAYALSSGASIIEGPGFTGGNLLFLKESSNSIAKFKVTLNSAALLQRYRVRIRYASTTNLRLFVQNSNNDFLVIYINKTMNIDGDLTYQTFDFATSNSNMGFSGDTNDFIIGAESFVSNEKIYIDKIEFIPVQ
modifications: 125I-iodinated (Pierce Iodination Beads, Na125I) where used as the labelled ligand; unlabelled where used as competitor
Take B3: in experiment [1], the Kd came to 7.35 nM and the binding site concentration Bmax is 0.55 pmol/mg BBMV. This molecule also showed a percent of the total binding displaced in experiment [3] of more than 20%.
